{"source": "patent US20100267626", "molecular_target": "T1, GST-Axin1 (a.a. 1-280), O35625", "T1 chain": "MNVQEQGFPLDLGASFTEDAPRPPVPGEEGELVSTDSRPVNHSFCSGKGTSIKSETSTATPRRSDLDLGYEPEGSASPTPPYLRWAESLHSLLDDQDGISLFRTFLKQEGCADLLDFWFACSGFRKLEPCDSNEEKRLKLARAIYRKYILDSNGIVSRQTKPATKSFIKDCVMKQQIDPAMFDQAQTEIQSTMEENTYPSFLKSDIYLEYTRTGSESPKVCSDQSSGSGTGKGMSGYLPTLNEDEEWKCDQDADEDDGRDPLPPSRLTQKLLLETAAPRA", "data": [{"protein": "Recombinant TNKS2 (in vitro PARsylation assay) (protein) MSGRRCAGGGAACASAAAEAVEPAARELFEACRNGDVERVKRLVTPEKVNSRDTAGRKSTPLHFAAGFGRKDVVEYLLQNGANVQARDDGGLIPLHNACSFGHAEVVNLLLRHGADPNARDNWNYTPLHEAAIKGKIDVCIVLLQHGAEPTIRNTDGRTALDLADPSAKAVLTGEYKKDELLESARSGNEEKMMALLTPLNVNCHASDGRKSTPLHLAAGYNRVKIVQLLLQHGADVHAKDKGDLVPLHNACSYGHYEVTELLVKHGACVNAMDLWQFTPLHEAASKNRVEVCSLLLSYGADPTLLNCHNKSAIDLAPTPQLKERLAYEFKGHSLLQAAREADVTRIKKHLSLEMVNFKHPQTHETALHCAAASPYPKRKQICELLLRKGANINEKTKEFLTPLHVASEKAHNDVVEVVVKHEAKVNALDNLGQTSLHRAAYCGHLQTCRLLLSYGCDPNIISLQGFTALQMGNENVQQLLQEGISLGNSEADRQLLEAAKAGDVETVKKLCTVQSVNCRDIEGRQSTPLHFAAGYNRVSVVEYLLQHGADVHAKDKGGLVPLHNACSYGHYEVAELLVKHGAVVNVADLWKFTPLHEAAAKGKYEICKLLLQHGADPTKKNRDGNTPLDLVKDGDTDIQDLLRGDAALLDAAKKGCLARVKKLSSPDNVNCRDTQGRHSTPLHLAAGYNNLEVAEYLLQHGADVNAQDKGGLIPLHNAASYGHVDVAALLIKYNACVNATDKWAFTPLHEAAQKGRTQLCALLLAHGADPTLKNQEGQTPLDLVSADDVSALLTAAMPPSALPSCYKPQVLNGVRSPGATADALSSGPSSPSSLSAASSLDNLSGSFSELSSVVSSSGTEGASSLEKKEVPGVDFSITQFVRNLGLEHLMDIFEREQITLDVLVEMGHKELKEIGINAYGHRHKLIKGVERLISGQQGLNPYLTLNTSGSGTILIDLSPDDKEFQSVEEEMQSTVREHRDGGHAGGIFNRYNILKIQKVCNKKLWERYTHRRKEVSEENHNHANERMLFHGSPFVNAIIHKGFDERHAYIGGMFGAGIYFAENSSKSNQYVYGIGGGTGCPVHKDRSCYICHRQLLFCRVTLGKSFLQFSAMKMAHSPPGHHSVTGRPSVNGLALAEYVIYRGEQAYPEYLITYQIMRPEGMVDG", "values": [{"measurement": "in vitro PARsylation with biotin-NAD+ (SDS-PAGE, streptavidin probe)", "result": "TNKS2 was able to PARsylate an Axin1 fragment (a.a. 1-280) containing the TBD in vitro, which was completely inhibited by XAV939 treatment"}]}]}
